Assays:
[1] = target: T1, human TLR1 (Homo sapiens, UniProt O60603+Q15399); assay: BP1569-induced IL-6 in human PBMC with TLR1 blocking antibody; type: cell-based; conditions: 100 ng/ml, 24 h
T1 construct: endogenous in cells; host or cells: human PBMC
Method: (§1) Luciferase activity was quantified after 24 h. […] IL-8 production was quantified after 24 h. […] After 24 h, the concentrations of IL-6 in supernatants were determined by ELISA.
(§2) Cytokine production by TLR2 requires activation of the transcription factors NF-κB and p38 MAP kinase. To determine if BP1569 activates NF-κB, HEK 293T cells stably expressing TLR2, but devoid of TLR4, were transfected with an NF-κB luciferase reporter construct. […] To assess activation of the MAP kinase pathway, spleen cells from C3H/HeJ mice were stimulated with BP1569. […] TLR agonists can bind to TLR1/2 or TLR2/6 heterodimers, therefore, the role of these TLRs using specific blocking antibodies to human TLR1 and TLR6 was examined.

[2] = target: T2, human TLR2 (Homo sapiens, UniProt O60603+Q15399); assay: NF-κB luciferase reporter assay in HEK 293T cells stably expressing TLR2; type: cell-based; conditions: 100 ng/ml, HEK 293T-TLR2, devoid of TLR4
T2 construct: expressed in transfected cells; host or cells: HEK 293T
Method: as §1
HEK 293T cells stably expressing human TLR2 were transfected with an NF-κB luciferase construct as described previously (21) and stimulated overnight with the indicated concentrations of BP1569.
as §2

[3] = test system: C3H/HeJ mice; assay: Cytokine induction in vivo by BP1569 (serum ELISA); conditions: 70 μg intraperitoneally, 3 h, versus PBS controls
Method: (§3) After 3 h serum IL-12 and IL-6 concentrations were quantified by ELISA. […] After seven days the draining lymph node was harvested and cells were stimulated with BP1569 (2 μg/ml). […] After seven days the draining lymph node was harvested and cells were stimulated with total heat killed B. pertussis 1-100×10^6/ml).
C3H/HeJ mice were treated intraperitoneally with BP1569 (70 μg) or PBS control and serum cytokines were measured by ELISA after 3h.
C3H/HeJ mice were treated intraperitoneally with BP1569 (70 μg) and serum cytokines were measured after 3 h.

[4] = test system: BMDC from C3H/HeJ mice; assay: Lipase treatment of lipoprotein before stimulation of DC; type: cell-based; conditions: lipase from Aspergillus or Pseudomonas, 18 h
Method: (§4) Lipase-treated or untreated BP1569 (100 ng/ml) was used to stimulate BMDC from C3H/HeJ mice.
(§5) Blocking antibodies were used against TLR2 to determine if the proteins can activate TLR2 specifically. […] Lipase treatment was used to confirm that the immunostimulatry effects of BP1569 were due the presence of the characteristic acyl side chain of the lipoprotein. The recombinant lipoprotein was incubated with two separate lipases for 18 h prior to stimulation of DC. Lipase treatment abolished BP1569-induced IL-12p40 and IL-6 production (FIG. 2E), but had no effect on cytokine production induced by the TLR9 agonist CpG (data not shown), confirming that BP1569 contains lipid side chains capable of triggering TLR2-induced inflammatory cytokine production.

[5] = target: T3, human TLR6 (Homo sapiens, UniProt Q9Y2C9); assay: BP1569-induced IL-6 in human PBMC with anti-TLR6 antibody; type: cell-based; conditions: 100 ng/ml, 24 h
T3 construct: endogenous in cells; host or cells: human PBMC
Method: as §1, §2

[6] = test system: DC from C3H/HeJ mice; assay: DC maturation: surface expression of MHC class II, CD80, CD86 by flow cytometry; type: cell-based; conditions: 100 ng/ml, 24 hours vs medium only
Method: as §4
Following stimulation, DC were stained with CD11c (clone N418; eBioscience), MHCII (clone M5/114.15.2 ebioscience), CD80 (clone 16-10A1 eBioscience) and CD86 (clone […] eBioscience). Samples were analyzed with a FACS DIVA and FloJo software.
(§6) The present inventors examined the capacity of pertussis lipoprotein to activate innate immune cells in vitro using bone marrow-derived DCs from TLR4-defective C3H/HeJ mice. […] Furthermore, stimulation of DCs with BP1569 for 24 hours enhanced surface expression of MHC class II, CD80 and CD86 detectable by flow cytometry (FIG. 2C).

[7] = test system: p38 MAP kinase; assay: p38 phosphorylation in spleen cells (Western blot); type: cell-based; conditions: spleen cells from C3H/HeJ mice
Method: as §1
(§7) Bone marrow derived dendritic cells (DCs) were prepared by culturing bone marrow cells obtained from the femur and tibia of mice in complete RPMI (cRPMI, RPMI containing 10% fetal calf serum, 100 U/ml penicillin, 100 μg/ml streptomycin, 2 mM 1-glutamine (Invitrogen), and 50 μM 2-ME (Sigma-Aldrich) supplemented with GM-CSF 40 ng/ml. Cells were re-cultured with fresh medium containing 40 ng/ml GM-CSF every 3 d for a period of 8 d. DC were seeded at 1×10^6 cells per ml 24 hr prior to stimulation. ELISA assays were performed using R&D kits according to the manufacturer's instructions. Spleen cells from C3H/HeJ mice were seeded at 2×10^6 cells per ml and stimulated with Pam3Cys4 (120nM) or BP1569 (120 nM) for the indicated times, with or without addition of T2.5-anti-TLR2 antibody or an isotype control (Hycult Biotech). For p38 activation assays, samples were lysed with RIPA buffer and SDS-PAGE was performed followed by Western blotting with anti-phospho-p38 and β-actin antibodies (Cell Signaling).
Cytokine production by TLR2 requires activation of the transcription factors NF-κB and p38 MAP kinase. […]

[8] = target: T2, human TLR2; assay: IL-8 production by TLR2 transfected HEK 293T cells; type: cell-based; conditions: HEK 293T-TLR2, 24 h
Method: as §1, §2

[9] = test system: bone marrow-derived DCs from TLR4-defective C3H/HeJ mice; assay: Cytokine production by bone marrow-derived DC stimulated with BP1569 (ELISA); type: cell-based; conditions: BP1569 100 and 1000 ng/ml, 24 h
Method: as §4, §7, §6

[10] = test system: C3H/HeJ mice; assay: Antigenicity of BP1569: footpad immunization, lymph node cell re-stimulation; type: in vivo; conditions: 10 μg footpad
Method: as §3
C3H/HeJ mice were injected into the footpad with BP1569 (10 μg) diluted in PBS or with PBS only. After seven days the draining lymph node was harvested and the lymph node cells were stimulated with either BP1569 (2 μg/ml) or heat killed B. pertussis pertussis (1-100×10^6/ml). After 3 days of culture, the concentration of IFN-γ in supernatants was quantified by ELISA.
The possibility that BP1569 was immunogenic in vivo and capable of inducing B. pertussis-specific immune responses was examined. C3H/HeJ mice were injected into the footpad with BP1569 (10 μg) diluted in PBS or with PBS only. After seven days the draining lymph node was harvested and the lymph node cells were stimulated with either BP1569 (2 μg/ml) or heat killed B. pertussis.

[11] = target: T4, TLR2 (Mus musculus, UniProt Q9EPQ1+Q9QUN7); assay: BP1569-induced TNF-α production by DC with TLR2 blocking antibody; type: cell-based, mice; conditions: BP1569 100 ng/ml, 24 h, anti-TLR2 T2.5 2.5 μg/ml
T4 construct: Bone marrow derived dendritic cells (DCs) were prepared by culturing bone marrow cells obtained from the femur and tibia of mice; endogenous in cells; host or cells: bone marrow-derived dendritic cells from C3H/HeJ mice (A3, A25) or C57BL/6 mice (A13)
Method: as §4, §5

[12] = test system: TLR2; assay: BP2992 activity as TLR2 ligand (data not shown)
Excerpt: C-terminal histidine versions of the putative lipoproteins were constructed and expressed in E. coli by IPTG induction. BP1569 and BP2992 were successfully expressed and purified by nickel affinity followed by ion-exchange chromatography. […] Therefore, the inventors adopted a strategy of carrying out all initial studies with lipoproteins in TLR4 defective cells or mice and then synthesized lipopeptide versions of the lipoproteins for more thorough immunological analysis.

[13] = test system: human peripheral blood mononuclear cells (PBMC); assay: BP2992 cytokine production from human PBMC; type: cell-based; conditions: 0.01-1 μg/ml, 24 h, two donors
Method: PBMC from two human donors (A and B) were treated with BP2992 (0.01-1 μg/ml), After 24 h, the concentrations of TNF-α in supernatants were determined by ELISA.

[14] = target: T4, TLR2; assay: BP2992 cytokine production by DC with anti-TLR2 antibody; type: cell-based, mice; conditions: with or without anti-TLR2 T2.5 2.5 μg/ml, 24 hours
Method: After 24 hours IL-6 production was measured by ELISA. […] After 24 hours TNF-α production was measured by ELISA.

[15] = test system: dendritic cells from C3H/HeJ mice; assay: BP2992 maturation and cytokine production by dendritic cells; type: cell-based; conditions: 24 h
Method: Lane 1: 5 ng BP2992; lane 2: 10 ng BP2992.

T2 sequence (O60603 21-784): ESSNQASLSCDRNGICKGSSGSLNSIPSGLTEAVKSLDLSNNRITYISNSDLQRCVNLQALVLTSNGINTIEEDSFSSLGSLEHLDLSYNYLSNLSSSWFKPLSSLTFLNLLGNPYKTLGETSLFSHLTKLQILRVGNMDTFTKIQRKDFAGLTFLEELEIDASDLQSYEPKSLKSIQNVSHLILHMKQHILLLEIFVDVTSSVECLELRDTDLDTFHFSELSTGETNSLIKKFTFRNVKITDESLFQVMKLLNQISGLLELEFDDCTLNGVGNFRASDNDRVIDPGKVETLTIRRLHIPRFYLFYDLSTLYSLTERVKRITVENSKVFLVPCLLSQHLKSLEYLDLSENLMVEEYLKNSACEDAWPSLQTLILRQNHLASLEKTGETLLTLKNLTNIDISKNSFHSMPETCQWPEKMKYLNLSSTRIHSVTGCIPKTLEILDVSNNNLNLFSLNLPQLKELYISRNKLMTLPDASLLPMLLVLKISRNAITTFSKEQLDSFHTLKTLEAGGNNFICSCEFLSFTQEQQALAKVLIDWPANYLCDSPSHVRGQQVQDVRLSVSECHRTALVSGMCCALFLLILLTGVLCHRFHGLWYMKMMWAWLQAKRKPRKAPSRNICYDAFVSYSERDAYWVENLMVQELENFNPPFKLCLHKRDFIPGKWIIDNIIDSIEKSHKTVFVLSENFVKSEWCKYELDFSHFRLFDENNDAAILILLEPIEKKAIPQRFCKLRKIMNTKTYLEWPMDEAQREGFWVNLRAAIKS
T2 sequence (Q15399 25-786): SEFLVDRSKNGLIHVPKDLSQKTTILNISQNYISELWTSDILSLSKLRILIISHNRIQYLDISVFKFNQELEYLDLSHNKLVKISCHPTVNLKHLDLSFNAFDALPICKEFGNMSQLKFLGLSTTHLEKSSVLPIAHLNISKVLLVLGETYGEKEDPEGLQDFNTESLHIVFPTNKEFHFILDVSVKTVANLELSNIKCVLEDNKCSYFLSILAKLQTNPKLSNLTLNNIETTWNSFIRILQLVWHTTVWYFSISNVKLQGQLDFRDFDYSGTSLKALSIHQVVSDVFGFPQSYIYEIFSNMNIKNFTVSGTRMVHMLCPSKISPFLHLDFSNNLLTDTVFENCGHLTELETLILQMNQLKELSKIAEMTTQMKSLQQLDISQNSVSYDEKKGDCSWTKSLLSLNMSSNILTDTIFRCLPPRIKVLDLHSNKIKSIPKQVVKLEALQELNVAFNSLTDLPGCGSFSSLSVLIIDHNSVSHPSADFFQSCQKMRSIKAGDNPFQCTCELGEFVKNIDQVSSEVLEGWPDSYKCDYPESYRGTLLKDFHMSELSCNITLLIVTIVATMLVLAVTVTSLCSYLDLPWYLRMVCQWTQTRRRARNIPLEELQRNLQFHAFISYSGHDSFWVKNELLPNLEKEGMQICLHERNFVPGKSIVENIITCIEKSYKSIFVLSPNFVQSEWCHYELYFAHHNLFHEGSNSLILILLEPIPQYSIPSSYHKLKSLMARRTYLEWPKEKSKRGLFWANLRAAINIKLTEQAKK
T4 sequence (Q9QUN7 25-784): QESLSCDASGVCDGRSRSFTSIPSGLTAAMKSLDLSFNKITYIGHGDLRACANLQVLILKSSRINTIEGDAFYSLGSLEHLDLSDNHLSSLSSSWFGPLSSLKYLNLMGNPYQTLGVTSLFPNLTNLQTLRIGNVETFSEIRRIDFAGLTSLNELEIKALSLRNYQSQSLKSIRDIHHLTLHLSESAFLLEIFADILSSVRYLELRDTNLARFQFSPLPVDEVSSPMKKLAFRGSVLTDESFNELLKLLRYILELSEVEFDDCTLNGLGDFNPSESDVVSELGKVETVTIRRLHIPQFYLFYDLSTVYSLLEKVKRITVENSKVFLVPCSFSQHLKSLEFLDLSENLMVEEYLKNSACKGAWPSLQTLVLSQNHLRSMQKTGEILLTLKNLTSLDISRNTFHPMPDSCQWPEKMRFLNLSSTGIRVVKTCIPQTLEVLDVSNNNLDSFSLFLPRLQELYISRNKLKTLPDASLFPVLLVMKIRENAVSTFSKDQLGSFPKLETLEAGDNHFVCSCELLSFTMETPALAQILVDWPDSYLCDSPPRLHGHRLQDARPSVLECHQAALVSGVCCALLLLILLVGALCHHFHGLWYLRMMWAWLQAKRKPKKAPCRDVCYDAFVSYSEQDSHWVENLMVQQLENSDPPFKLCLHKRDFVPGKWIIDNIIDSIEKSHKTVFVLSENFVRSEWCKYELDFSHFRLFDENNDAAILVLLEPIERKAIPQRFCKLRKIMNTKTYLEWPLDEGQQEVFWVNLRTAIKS
T4 sequence (Q9EPQ1 26-795): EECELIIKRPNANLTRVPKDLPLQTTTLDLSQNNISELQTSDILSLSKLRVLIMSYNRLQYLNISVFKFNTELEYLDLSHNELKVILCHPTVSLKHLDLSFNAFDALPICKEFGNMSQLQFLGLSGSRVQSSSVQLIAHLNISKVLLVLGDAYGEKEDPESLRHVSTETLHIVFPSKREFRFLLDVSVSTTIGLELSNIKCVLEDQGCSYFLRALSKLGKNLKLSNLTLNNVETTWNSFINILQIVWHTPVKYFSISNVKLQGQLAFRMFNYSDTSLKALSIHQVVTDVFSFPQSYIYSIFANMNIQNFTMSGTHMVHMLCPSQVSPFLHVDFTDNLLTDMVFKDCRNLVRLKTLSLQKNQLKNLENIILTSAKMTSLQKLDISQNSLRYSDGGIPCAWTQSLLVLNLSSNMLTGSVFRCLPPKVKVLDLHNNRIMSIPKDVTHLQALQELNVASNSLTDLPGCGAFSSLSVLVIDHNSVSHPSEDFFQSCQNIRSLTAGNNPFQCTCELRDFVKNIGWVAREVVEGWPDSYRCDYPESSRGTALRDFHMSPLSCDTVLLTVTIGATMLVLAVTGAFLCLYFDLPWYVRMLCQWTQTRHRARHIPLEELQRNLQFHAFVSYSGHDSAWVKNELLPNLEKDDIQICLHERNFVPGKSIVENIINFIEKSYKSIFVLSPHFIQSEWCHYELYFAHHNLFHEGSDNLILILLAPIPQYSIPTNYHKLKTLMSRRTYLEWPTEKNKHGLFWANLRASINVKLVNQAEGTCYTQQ
T1 sequence (Q15399 25-786): as the sequence (Q15399 25-786) above
T1 sequence (O60603 21-784): as the sequence (O60603 21-784) above
T3 sequence (O60603 21-784 partner): as the sequence (O60603 21-784) above
T3 sequence (Q9Y2C9 32-796): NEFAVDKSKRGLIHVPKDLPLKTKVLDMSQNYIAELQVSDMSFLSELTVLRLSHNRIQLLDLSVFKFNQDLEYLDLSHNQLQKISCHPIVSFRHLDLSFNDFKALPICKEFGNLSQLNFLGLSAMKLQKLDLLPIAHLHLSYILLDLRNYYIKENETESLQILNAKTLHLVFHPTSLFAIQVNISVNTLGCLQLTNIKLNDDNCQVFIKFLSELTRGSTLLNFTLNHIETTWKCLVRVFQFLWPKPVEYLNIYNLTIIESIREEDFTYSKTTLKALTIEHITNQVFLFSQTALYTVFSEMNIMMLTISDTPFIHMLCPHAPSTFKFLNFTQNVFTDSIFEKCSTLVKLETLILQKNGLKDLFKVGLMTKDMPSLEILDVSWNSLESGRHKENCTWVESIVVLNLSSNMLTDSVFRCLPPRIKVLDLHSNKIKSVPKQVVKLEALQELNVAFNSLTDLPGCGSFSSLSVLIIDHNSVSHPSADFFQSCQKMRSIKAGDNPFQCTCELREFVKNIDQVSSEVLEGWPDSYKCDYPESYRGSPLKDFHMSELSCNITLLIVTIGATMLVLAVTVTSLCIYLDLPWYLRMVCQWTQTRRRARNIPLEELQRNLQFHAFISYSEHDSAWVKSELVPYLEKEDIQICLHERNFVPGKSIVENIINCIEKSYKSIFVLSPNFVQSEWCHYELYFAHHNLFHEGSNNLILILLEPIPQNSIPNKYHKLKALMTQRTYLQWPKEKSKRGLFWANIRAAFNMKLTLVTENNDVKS

B1: BP1569: full length B. pertussis lipoprotein BP1569, ~40 kDa, TLR2 agonist (protein, listed as Bordetella pertussis)
chain: MRMNKRHAGASALMALALLAGCSDVNQLLGNEESVDYKSTRRGDPLSIPPDLTQANNDPRYKAPASGTATYSQFQQQGLQQQASAGQNTNVLPERADMRVERDGDLRWLVIERPPEQLFSKVVDFWTDTGFTVSVNNPQAGIIETDWAENRAKIPESWLRQVLGSVLETAWDSGEREKFRTRVERVNGHTEIYITHNQMLEKRVGSDGGQVQWTHGKEDPGLNAAMLARLMVYLGTDVDAARKLVAQAEAAPQAPKVQSVRAEGAMLVVDESFDRAWRRVGVALDSGGFAVDDRDRSAGEYFVRYVDTDTGAQNEQPGFFSRLFSSDKKAQAPQYRIRLTGSGTQTQVTVLDANGQRDSSATAQRMLSVLKDKMV
Q: B1 was tested. Which “BP1569-induced IL-6 production with TLR1 blocking antibody” value [1] did it give?
A: significantly reduced

Q: What about the “luciferase activity (NF-κB reporter)” value [2] of the same molecule?
A: significant increase

Q: What about the “serum IL-6” value [3] of the same molecule?
A: Significant concentrations

Q: What about the “serum IL-12” value [3] of the same molecule?
A: Significant concentrations

Q: And the “effect of lipase treatment on induced IL-6 production” value ([4]; 100 ng/ml on DC)?
A: abolished

Q: And the “effect of lipase treatment on induced IL-12p40 production” value ([4]; then DC stimulation)?
A: abolished

Q: What about the “BP1569-induced IL-6 production with anti-TLR6 antibody” value [5] of the same molecule?
A: little effect

Q: And the “surface expression of CD80” value [6]?
A: enhanced

Q: And the “surface expression of CD86” value [6]?
A: enhanced

Q: And the “surface expression of MHC class II” value [6]?
A: enhanced

Q: And the p38 phosphorylation ([7]; 15 minutes following stimulation)?
A: enhanced

Q: And the “p38 phosphorylation with anti-TLR2 blocking antibody” value ([7]; T2.5 2.5 μg/ml)?
A: inhibited

Q: What about the IL-8 production [8] of the same molecule?
A: increased

Q: And the “IL-6 production by DC” value [9]?
A: induced robust

Q: What about the “IL-12 production by DC” value [9] of the same molecule?
A: induced robust

Q: And the “IL-23 production by DC” value [9]?
A: induced robust

Q: And the “TNF-α production by DC” value [9]?
A: induced robust

Q: And the “BP1569-specific IFN-γ by lymph node cells” value ([10]; day 7, re-stimulated with BP1569 2 μg/ml)?
A: induced at significant levels

Q: What about the “IFN-γ upon re-stimulation with heat killed B. pertussis” value ([10]; day 7 lymph node cells) of the same molecule?
A: produced IFN-γ

Q: And the “BP1569-induced TNF-α production in the presence of the TLR2 blocking antibody” value [11]?
A: completely abrogated

B2: BP2992: full length B. pertussis lipoprotein BP2992, ~16 kDa (protein, listed as Bordetella pertussis)
chain: NYMHSPSVVAGRARRLLAVAAVAGSVAVLAGCANPSASSGVYTYGQAQREQIVRTGTVTGVRPITIQNDKSSGVGLVAGGALGGVAGNAVGGGTGRTIATVGGVILGALAGNAIENRAGKSSGYEITVRLDNGETRVVAQEADVPISVGQRVQVISGAGPTRVTPY
Q: For B2, which “ligand activity for TLR2” value [12] is on record?
A: immunologically active ligand for TLR2

Q: And the “pro-inflammatory cytokine production (TNF-α) from human PBMC” value [13]?
A: induces

Q: What about the “TLR2 dependence of pro-inflammatory cytokine production by DCs (IL-6, TNF-α)” value [14] of the same molecule?
A: in a TLR2 dependent manner

Q: And the “maturation of dendritic cells (MHC class II, CD80, CD86)” value ([15]; 100 ng/ml)?
A: induces

Q: What about the “pro-inflammatory cytokine production by dendritic cells” value ([15]; 50, 100 and 1000 ng/ml) of the same molecule?
A: induces

Reference: US11497805B2, “Toll-like receptor 2 agonists and vaccines and uses thereof” (The Provost, Fellows, Foundation Scholars & the Other …, priority 2014, dated 2022)
